For the assay, the target named is T1, mPD1 (on CHO-mPD1 cells) (mouse (printed as mPD1), UniProt Q02242 25-288).
T1 construct: whole, on cells; Target of the antibody terminus in the FACS assay
T1 sequence (looked up): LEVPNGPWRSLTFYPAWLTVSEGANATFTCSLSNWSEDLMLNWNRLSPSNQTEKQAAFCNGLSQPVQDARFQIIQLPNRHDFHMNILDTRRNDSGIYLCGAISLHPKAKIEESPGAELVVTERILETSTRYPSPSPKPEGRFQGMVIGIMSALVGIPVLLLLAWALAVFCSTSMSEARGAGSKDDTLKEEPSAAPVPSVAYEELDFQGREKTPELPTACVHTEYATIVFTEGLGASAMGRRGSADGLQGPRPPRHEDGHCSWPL
Nature of the assay: flow cytometry (FACS) on CHO-mPD1 cells, PE secondary antibody, 3-fold dilutions from 400 nM. As for the experimental part:
CHO-mPD1 or CHO-hIL-10R cells were centrifuged at 250 g for 5 min, a supernatant was discarded, the cell density was adjusted to 2E+06 by a PBS buffer with 3% BSA, and it was evenly divided into a 96-well V-shaped plate according to 100 μl/tube; the fusion protein molecules diluted above were added to cells, and incubated at 100 μL/well and 2-8° C. for 0.5 h; the 96-well plate was taken out, and centrifuged at 250 g for 5 min, and a supernatant was removed carefully; the PBS buffer with 3% BSA was used to prepare a PE fluorescent secondary antibody (1:500 dilution), it was added to the corresponding 96-well plate according to the volume of 100 μL/well, and the cells were resuspended, and incubated at 2-8° C. for 30 min; the 96-well plate was taken out, and centrifuged at 250 g for 5 min, a supernatant was removed carefully, the PBS buffer with 3% BSA was added at 200 μL/well, and it was centrifuged again at 250 g for 5 min, and a supernatant was removed carefully; and it was resuspended with 1×PBS according to the volume of 100 μL/well, and FACS detection was performed after the resuspension.
(A flow cytometer gives signals particle by particle.)

The values below come from US20250032583A1 (GUANGDONG FAPON BIOPHARMA, published 2025).

B1: R0989 (other)
heavy: QVQLKESGPGLVQPSQTLSLTCTVSGFSLTSYNVHWVRQPPGKGLEWMGGMRYNEDTSYNSALKSRLSISRDTSKNQVFLKMNSLQTDDTGTYYCTRDAVYGGYGGWFAYWGQGTLVTVSSASTKGPSVFPLAPSSKSTSGGTAALGCLVKDYFPEPVTVSWNSGALTSGVHTFPAVLQSSGLYSLSSVVTVPSSSLGTQTYICNVNHKPSNTKVDKRVEPKSCDKTHTCPPCPAPEAAGGPSVFLFPPKPKDTLMISRTPEVTCVVVDVSHEDPEVKFNWYVDGVEVHNAKTKPREEQYNSTYRVVSVLTVLHQDWLNGKEYKCKVSNKALPAPIEKTISKAKGSGSGSGSGQGTQSENSCTHFPGNLPNMLRDLRDAFSRVKTFFQMKDQLDNLLLKESLLEDFKGYLGCQALSEMIQFYLEEVMPQAENQDPDIKAHVNSLGENLKTLRLRLRRCHRFLPCENGGGSGGKSKAVEQVKNAFNKLQEKGIYKAMSEFDIFINYIEAYMTMKIRNGSGSGSGSGQPREPQVYTLPPSREEMTKNQVSLTCLVKGFYPSDIAVEWESNGQPENNYKTTPPVLDSDGSFFLYSKLTVDKSRWQQGNVFSCSVMHEALHNHYTQKSLSLSPGK
light: DTVLTQSPALAVSLGQRVTISCKASETVSSSMYSYIHWYQQKPGQQPKLLIYRASNLESGVPARFSGSGSGTDFTLTIDPVEADDVATYFCQQSWNPWTFGGGTKLELKRTVAAPSVFIFPPSDEQLKSGTASVVCLLNNFYPREAKVQWKVDNALQSGNSQESVTEQDSKDSTYSLSSTLTLSKADYEKHKVYACEVTHQGLSSPVTKSFNRGEC
notes: Anti-PD-1 antibody with the modified IL-10 monomer inserted between CH2 and CH3 through linker2; also called IL-10 monomer fusion protein, IL-10 monomer between CH2 and CH3 of the heavy chain (Position 3)
With B1, the binding result is listed as “binds”.
